Laboratory results reported in publication PMC12643800.

Key:
[1] = biological target: commercially available asparaginase Ec-AsnB (MEDAC, Germany) (E. coli) (UniProt P00805); test: SEC; Superdex 200 Increase 10/300 GL on FPLC, 0.5 ml/min, 150 ug protein loaded; molecular mass from a calibration curve with carbonic anhydrase, ovalbumin, conalbumin and aldolase; proteins loaded individually
[2] = biological target: Escherichia coli L-asparaginase II (AsnB) expressed in and secreted from Corynebacterium glutamicum (E. coli K-12) (UniProt P00805); test: as above

| stoichiometry N [1] | stoichiometry N [2] | Substance |
| --- | --- | --- |
| 4 | – | commercially available asparaginase Ec-AsnB (MEDAC, Germany) (from UniProt P00805 23-348) (enzyme) |
| – | 4 | Escherichia coli L-asparaginase II (AsnB) expressed in and secreted from Corynebacterium glutamicum (from UniProt P00805 23-348) (enzyme) |
